# Laboratory results: article PMC8789080
# Where two headings read alike, the source gives them in different places.
# B1: RDM2 EMSA (both scrambled) (dsDNA)
# DNA 1: TACGTGGTTGAATGCTCGACACTACATGGCGCGGTTTGCCTTGTGGATTGCAAGTCCAGATAGAAACGGACATATTGATTATTAATTAGCGCTGATGAGCCGGTTCCCTTCTGGCCGGTTCATCTGATGCAGCGTGCGCTACTAGTTCCCGTA
# DNA 2: TACGGGAACTAGTAGCGCACGCTGCATCAGATGAACCGGCCAGAAGGGAACCGGCTCATCAGCGCTAATTAATAATCAATATGTCCGTTTCTATCTGGACTTGCAATCCACAAGGCAAACCGCGCCATGTAGTGTCGAGCATTCAACCACGTA
# B2: O2L-O2R EMSA (dsDNA)
# DNA 1: TACGTGGTTGAATGCTCGACACTACATGGCGCGGTTTGCCTTGTGGATTGCAAATATATCCTAAAATGGGATAATCCGAAACTGGGATTAGTTGATGAGCCGGTTCCCTTCTGGCCGGTTCATCTGATGCAGCGTGCGCTACTAGTTCCCGTA
# DNA 2: TACGGGAACTAGTAGCGCACGCTGCATCAGATGAACCGGCCAGAAGGGAACCGGCTCATCAACTAATCCCAGTTTCGGATTATCCCATTTTAGGATATATTTGCAATCCACAAGGCAAACCGCGCCATGTAGTGTCGAGCATTCAACCACGTA
# B3: O2R EMSA (O2L scrambled) (dsDNA)
# DNA 1: TACGTGGTTGAATGCTCGACACTACATGGCGCGGTTTGCCTTGTGGATTGCAAATATGAGTTCAATCTGAAAAATCCGAAACTGGGATTAGTTGATGAGCCGGTTCCCTTCTGGCCGGTTCATCTGATGCAGCGTGCGCTACTAGTTCCCGTA
# DNA 2: TACGGGAACTAGTAGCGCACGCTGCATCAGATGAACCGGCCAGAAGGGAACCGGCTCATCAACTAATCCCAGTTTCGGATTTTTCAGATTGAACTCATATTTGCAATCCACAAGGCAAACCGCGCCATGTAGTGTCGAGCATTCAACCACGTA
# B4: O2L EMSA (O2R scrambled) (dsDNA)
# DNA 1: TACGTGGTTGAATGCTCGACACTACATGGCGCGGTTTGCCTTGTGGATTGCAAATATATCCTAAAATGGGATAGAACTACTGGTAACGTAGTTGATGAGCCGGTTCCCTTCTGGCCGGTTCATCTGATGCAGCGTGCGCTACTAGTTCCCGTA
# DNA 2: TACGGGAACTAGTAGCGCACGCTGCATCAGATGAACCGGCCAGAAGGGAACCGGCTCATCAACTACGTTACCAGTAGTTCTATCCCATTTTAGGATATATTTGCAATCCACAAGGCAAACCGCGCCATGTAGTGTCGAGCATTCAACCACGTA
# Experiments:
# Experiment in all cases: EMSA
# 6H-QseC2 [1] = molecular target: T1, 6H-QseC2 (Mesorhizobium japonicum R7A, UniProt A0ABX6MZB7 1-81)
# 6H-QseC2 [2] = molecular target: T1, 6H-QseC2; remark: listed apart in the source
# 6H-QseC2 [3] = molecular target: T1, 6H-QseC2; remark: listed apart in the source
# 6H-QseC2 [4] = molecular target: T1, 6H-QseC2; remark: listed apart in the source
binder,measurement,setting,value
B1,binding result,6H-QseC2 [1],no binding
B2,binding result,6H-QseC2 [2],binds
B3,binding result,6H-QseC2 [3],binds
B4,binding result,6H-QseC2 [4],binds
